{"source": "patent US20200230115A1", "about": "“METHODS OF TREATING INFLUENZA-ASSOCIATED VIRAL PNEUMONIA” (priority 2017, published 2020)", "set-up_in_all_cases": "species or system DBA/2J mice", "conditions_in_all_cases": "mouse, in vivo", "key": {"[1]": {"test_system": "IAV (WSNHAnc-Asp225Gly)"}, "[2]": {"test_system": "IAV (WSNHAnc-Asp225Gly)", "remark": "listed apart in the source"}, "[3]": {"test_system": "IAV (WSNHAnc-Asp225Gly)", "remark": "listed apart in the source"}}, "note": "Entries after “also recorded” stand apart in the source; their conditions may differ."}
{"molecule": "KGF: keratinocyte growth factor, a potent pulmonary epithelial mitogen; cognate receptor FGFR2 (protein, UniProt P21781 32-194, looked up) Fibroblast growth factor 7: CNDMTPEQMATNVNCSSPERHTRSYDYMEGGDIRVRRLFCRTQWYLRIDKRGKVKGTQEMKNNYNIMEIRTVAVGIVAIKGVESEFYLAMNKEGKLYAKKECNEDCNFKELILENHYNTYASAKWTHNGGEMFVALNQKGIPVRGKKTKKEQKTAHFLPMAIT", "values": [{"measurement": "KGF dose of maximal effect on IAV-induced mortality", "setting": "[1]", "result": 5, "unit": "mg/kg"}, {"measurement": "mortality after KGF pretreatment", "setting": "[1]", "result": "did not enhance mortality"}, {"measurement": "mortality, dose response", "setting": "[1]", "result": "dose-dependent acceleration of mortality"}, {"measurement": "shortening of survival", "setting": "[1]", "result": 3, "unit": "days"}, {"measurement": "pulmonary viral burden vs PBS/IAV controls", "setting": "[2]", "result": "three- to fivefold greater; also recorded: No difference in viral burden"}, {"measurement": "IAV-NP staining of lung sections", "setting": "[3]", "result": "substantially more intense; also recorded: markedly more intense and diffuse"}, {"measurement": "blinded semiquantitative analysis of IAV-NP staining", "setting": "[3]", "result": "KGF-induced increase in viral burden and acceleration of spread"}]}
